Results on four molecules are retold here after patent US20070015242.

The data set deals with recombinant NC1 fragment of type XVIII collagen (UniProt P39061).
Chain of UniProt P39061 (P39061 whole entry, looked up, the tested form may be a part): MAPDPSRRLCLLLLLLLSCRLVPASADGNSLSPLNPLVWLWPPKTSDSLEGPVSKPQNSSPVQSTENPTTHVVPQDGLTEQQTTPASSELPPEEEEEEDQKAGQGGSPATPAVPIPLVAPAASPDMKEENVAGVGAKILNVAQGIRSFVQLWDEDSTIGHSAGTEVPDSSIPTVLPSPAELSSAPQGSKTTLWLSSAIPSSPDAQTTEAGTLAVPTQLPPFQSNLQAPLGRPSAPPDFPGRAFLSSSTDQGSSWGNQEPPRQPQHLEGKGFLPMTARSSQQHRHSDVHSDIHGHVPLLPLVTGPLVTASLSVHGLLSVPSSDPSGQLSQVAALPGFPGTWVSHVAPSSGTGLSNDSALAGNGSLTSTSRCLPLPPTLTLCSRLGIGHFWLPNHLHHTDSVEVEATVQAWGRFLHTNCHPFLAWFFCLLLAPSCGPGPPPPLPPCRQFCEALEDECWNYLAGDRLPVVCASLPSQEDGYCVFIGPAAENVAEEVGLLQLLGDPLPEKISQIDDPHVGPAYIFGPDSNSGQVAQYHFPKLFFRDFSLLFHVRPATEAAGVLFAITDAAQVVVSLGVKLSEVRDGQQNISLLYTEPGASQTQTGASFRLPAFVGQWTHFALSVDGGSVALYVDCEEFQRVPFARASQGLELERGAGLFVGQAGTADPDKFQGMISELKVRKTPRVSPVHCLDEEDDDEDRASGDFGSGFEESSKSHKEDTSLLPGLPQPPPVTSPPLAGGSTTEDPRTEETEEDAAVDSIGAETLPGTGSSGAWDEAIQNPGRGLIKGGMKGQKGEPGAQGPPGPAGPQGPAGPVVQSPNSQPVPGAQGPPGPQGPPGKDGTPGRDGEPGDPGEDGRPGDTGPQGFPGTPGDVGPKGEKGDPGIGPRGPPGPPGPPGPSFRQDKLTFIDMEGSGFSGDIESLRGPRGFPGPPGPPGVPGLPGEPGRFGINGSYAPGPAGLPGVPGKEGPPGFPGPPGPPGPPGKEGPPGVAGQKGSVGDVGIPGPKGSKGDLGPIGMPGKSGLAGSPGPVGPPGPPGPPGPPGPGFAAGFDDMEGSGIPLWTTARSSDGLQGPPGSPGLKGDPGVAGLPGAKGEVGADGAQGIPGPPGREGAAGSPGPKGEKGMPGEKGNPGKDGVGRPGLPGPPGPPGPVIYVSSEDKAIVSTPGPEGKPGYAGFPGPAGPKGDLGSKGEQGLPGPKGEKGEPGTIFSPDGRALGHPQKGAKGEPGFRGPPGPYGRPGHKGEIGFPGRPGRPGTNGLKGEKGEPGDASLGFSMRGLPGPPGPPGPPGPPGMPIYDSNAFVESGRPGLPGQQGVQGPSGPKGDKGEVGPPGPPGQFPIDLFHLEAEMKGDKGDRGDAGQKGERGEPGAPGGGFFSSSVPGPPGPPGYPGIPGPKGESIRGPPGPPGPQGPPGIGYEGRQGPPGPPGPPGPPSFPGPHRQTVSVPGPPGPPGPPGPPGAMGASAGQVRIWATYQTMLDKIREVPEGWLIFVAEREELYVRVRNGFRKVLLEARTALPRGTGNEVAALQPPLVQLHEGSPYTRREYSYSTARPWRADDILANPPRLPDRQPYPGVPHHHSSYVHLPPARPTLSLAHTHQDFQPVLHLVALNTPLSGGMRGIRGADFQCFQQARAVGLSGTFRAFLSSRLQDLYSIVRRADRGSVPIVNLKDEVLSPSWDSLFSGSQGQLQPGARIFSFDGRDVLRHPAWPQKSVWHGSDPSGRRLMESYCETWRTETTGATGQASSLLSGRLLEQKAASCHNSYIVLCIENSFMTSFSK

As to “matrix metalloproteinase-2 (MMP-2), active enzyme”, the “cleavage of recombinant NC1 fragment (Western blot of degradation products)” value (from here on “cleavage of recombinant NC1 fragment”) is “Treatment of the recombinant NC1 fragment of type XVIII collagen with MMP-2 or -9, similar to control, did not produce NC1 degradation products”. Turning to “matrix metalloproteinase-9 (MMP-9), active enzyme”, the “cleavage of recombinant NC1 fragment” value is given as “Treatment of the recombinant NC1 fragment of type XVIII collagen with MMP-2 or -9, similar to control, did not produce NC1 degradation products”. Same read-out and setting: under “matrix metalloproteinase-14 (MMP-14), active enzyme” stands “MMP-7 and MMP-14 cleaved the recombinant NC1 fragment to produce neostatin-7, neostatin-14 and several endostatin-containing fragments”.

B1: matrix metalloproteinase-7 (matrilysin, MMP-7), active enzyme (enzyme, UniProt P09237 95-267, looked up, species assumed)
Matrilysin: YSLFPNSPKWTSKVVTYRIVSYTRDLPHITVDRLVSKALNMWGKEIPLHFRKVVWGTADIMIGFARGAHGDSYPFDGPGNTLAHAFAPGTGLGGDAHFDEDERWTDGSSLGINFLYAATHELGHSLGMGHSSDPNAVMYPTYGNGDPQNFKLSQDDIKGIQKLYGKRSNSRKK
modifications: APMA-activated
In the case of B1, the “cleavage of NC1 fragments at pH 5.5, 6.5 and 7.5 (gel)” value was “the cleavage of collagen XVIII/NC1 by MMP-7 is pH sensitive, and proceeds less efficiently at more acidic pH”; the “cleavage of recombinant NC1 fragment” value is “MMP-7 and MMP-14 cleaved the recombinant NC1 fragment to produce neostatin-7, neostatin-14 and several endostatin-containing fragments”.
